Experimental data published in patent US10562935B2, “Stapled peptides and uses thereof” (London Health Sciences Centre Research Inc., priority 2015, dated 2020).
Bridges are numbered along the chain shown (N, C = ends).

B1: 7 kDa RHAMM: mini protein of 62 amino acids derived from the C-terminus of full-length RHAMM, contains both HABDs; reference for α-helical character (protein, listed as Mus musculus)
chain: RDSYAQLLGHQNLKQKIKHVVKLKDENSQLKSEVSKLRSQLVKRKQNELRLQGELDKALGIR

Experiments:
[1] = Circular dichroism (CD) spectroscopy of HABD2 peptides in Milli-Q water (Example 1); assay type: physicochemical; settings: for [θ]222/[θ]208 ratio of ellipticities / fH fraction helicity / Molar ellipticity [θ]192 / Molar ellipticity [θ]208 / Molar ellipticity [θ]222: 0.5 mM in Milli-Q water; for fH fraction helicity: equations 1-3; for α-helical character by CD (in words): Milli-Q water; for Molar ellipticity [θ]192: λ = 192 nm; for Molar ellipticity [θ]208: λ = 208 nm; for Molar ellipticity [θ]222: λ = 222 nm
Source text: In addition, a large mean residue ellipticity indicates greater α-helical character. […] This was predicted to be the case, as there is a lack of contributing residues that might form a hydrophobic core, thereby helping to stabilize the secondary structure of the linear peptide. For this reason, bridges were introduced into the peptides. […] The differences in α-helicity induced by the bridges placed at different points within each peptide may be due to the differences in their primary sequences. Specifically, two amino acids (at the i and i+4 position) have to be replaced in order to form the lactam bridge. In compound 133, leucine was replaced at both the i and i+4 position; while in compound 136, glutamine was replaced at the i position and aspartic acid was replaced at i+4. Leucine and glutamine are proposed to be helix-stabilizing residues.
A larger portion of the RHAMM protein was used as the reference for α-helical character of the truncated peptides. 7 kDa RHAMM (SEQ ID NO: 1) is a mini protein that is composed of 62 amino acids, which was derived from the C-terminus of the full-length RHAMM sequence. It contains both HABDs, and is predicted to have almost complete α-helix shape, similar to that of native full-length RHAMM.
A peptide's α-helicity can be quantified using equations 1-3: fH=[([θ]obs222−[θ]c)/([θ]max222−[θ]c)] (Equation 1) [θ]c=2220+53T (Equation 2) [θ]max222=(−44000+250T)(1−k/N) (Equation 3) where fH is the ratio of the average number of helical hydrogen bonds divided by the total number of hydrogen bonds that can be found in a peptide, T is the temperature in degrees Celsius, N is the number of residues in the peptide and k is a constant of ellipticity when 100% of the structure is α-helical (3 for carboxyamidated peptides).
Milli-Q water was chosen as the solvent in which all peptides would be dissolved for CD spectroscopy, as it is a UV invisible solvent, which is a requirement of the analytical technique, and it represents RHAMM's natural environment in the body. Luo and Baldwin [18] stated that when peptides are taken out of their native protein sequence, they usually show little to no helical formation in water alone. For this reason, TFE/H2O solutions are commonly used in studies to observe the α-helix characteristics, and may improve the helical nature of the peptides observed here. However, a helix-stabilizing solvent, such as TFE, would not be as contextually relevant, as there are no solvent stabilizing effects in the body. Thus use of TFE would tend to produce skewed results and not be representative of the peptide's natural behavior.

[2] = Direct HA-binding ELISA of biotinylated peptides on HA coated plates (Example 4); set-up: key to HA binding: absorbance (color) read at 450 nm; settings: for HA binding: as repeated in tables 16, 18, 20; for HA direct binding (OD): optical density, summary tables 15, 17, 19
Method: Each of these peptides was biotinylated at its amino-terminus, and an AEEA spacer was included to separate the peptide sequence from the biotin molecule.
HA coated plates were purchased (ECHELON). Peptides were dissolved in 2 mM PBS to constant molarity, aliquoted and stored at −20° C. until used in assays. 7 kDa biotin-labeled RHAMM (SEQ ID NO: 1) was synthesized and used as a positive control in these assays. Biotin labeled peptides were added to the HA coated wells (n=3 replicates/peptide) at either 0.8 or 0.08 μM and then incubated with shaking overnight at 4° C. Wells were washed free of excess unbound peptides using 200 μl PBS (4 times). 100 μl of Streptavidin-HRP was then added to each well and the plate was incubated at room temperature for 1 hr. The plate was then washed with 200 μl PBS/well 4 times and TMB Liquid Substrate System for ELISA (Sigma) was added to each well, incubated for 5-10 min at room temperature and color read at 450 nm Plate Reader (BioTek, SYNERGY H4, Hybrid Reader).
Direct HA-binding results for the biotinylated equivalents of compounds 132 and 150-161 are show in FIG. 39, and results for compounds 265-268 and 275-278 are shown in FIG. 40.

[3] = Circular dichroism (CD) spectroscopy of linear and stapled peptides in water or 40% TFE/water (Example 3); assay type: physicochemical; settings: for [0]208 mean residue ellipticity: λ = 208 nm; for [0]222 mean residue ellipticity: λ = 222 nm
Method: CD spectra were obtained on a Jasco J-810 spectropolarimeter and recorded in the range of 180-260 nm. Peptide solutions were prepared with a 0.1M phosphate buffer solution to a concentration of 0.5 mM. The measurements were performed in quartz cuvettes with a path length of 1 mm and a scanning speed of 10-50 nm/min. Five individual data points were averaged by the instrument in order to obtain the reported CD spectrum. The measurements were carried out at 20° C. A blank solution of 0.1M phosphate buffer solution was run before every measurement in order to baseline correct for any UV-interference observed from the buffer.
CD data for the 14- and 15-mer peptides containing HABD2 (VSKLRSQLVKRKQN, SEQ ID NO: 2) and HABD1 (NLKQKIKHVVKLKDE, SEQ ID NO: 4) and cyclized derivatives thereof in water or 40% TFE/water are provided below in Tables 8 (water) and 9 (40% TFE/water). Tables 8 and 9 provide the mean residue ellipicity ([θ] deg cm^2 dmol^−1) at λ=222 and 208 nm for each peptide and ratios of ellipticities at 222/208. Each of the peptides was acetylated at its amino terminus and amidated at its carboxy terminus.
CD data for linear peptides having the sequences […] (SEQ ID NO: 5) and […] (SEQ ID NO: 6) and cyclized derivatives thereof in water or 40% TFE/water are provided below in Tables 12 (water) and 13 (40% TFE/water). Tables 12 and 13 provide the mean residue ellipicity ([0] deg cm^2 dmol^−1) at λ=222 and 208 nm for each peptide and ratios of ellipticities at 222/208. Each of the peptides was acetylated at its amino terminus and amidated at its carboxy terminus.
Circular Dichroism (CD) spectroscopy is a tool that is used to study the secondary structure characteristics of a compound. Peptides and proteins can fold into organized structures, such as alpha helices and beta sheets, which are the result of complex hydrogen bonding and other interactions between amino acid side chains, as well as adopt a random coil formation, which lacks much of the organization of the other two structures. The CD spectrum of an alpha helix is characterized by two local minima at 208 nm and 222 nm. The ratio of the values of the molar ellipticities at these wavelengths ([θ]222/[θ]208) is a strong indication of the relative helicity of a compound; a compound is more helical when the ratio of these two values approaches 1.0. Synthetic constraints introduced to the peptide backbone can force a peptide chain to increase its helical character. These constraints can be introduced by staples, of varying types, which allow cyclization of the peptide backbone to take place.

[4] = [θ]222/[θ]208 ratio in water, summary tables 15, 17, 19
[5] = as repeated in tables 16, 18, 20

Molecule	[θ]222/[θ]208 ratio of ellipticities [1]	fH fraction helicity [1]	α-helical character by CD (in words) [1]	Molar ellipticity [θ]192 [1]	Molar ellipticity [θ]208 [1]	Molar ellipticity [θ]222 [1]	HA binding [2]	HA direct binding (OD) [2]	[θ]222/[θ]208 ratio of ellipticities [3, 4]	[θ]222/[θ]208 ratio of ellipticities [3, 5]	[0]222/[0]208 ratio of ellipticities ([3]; in 40% TFE/water)	[0]222/[0]208 ratio of ellipticities ([3]; in water)	[0]208 mean residue ellipticity ([3]; in 40% TFE/water)	[0]208 mean residue ellipticity ([3]; in water)	[0]222 mean residue ellipticity ([3]; in 40% TFE/water)	[0]222 mean residue ellipticity ([3]; in water)
H-(cyclo-7,11)-VSKLRS[ELVKK]KQN-NH2 (H-VSKLRSELVKKKQN-NH2; lactam 7-11; SMILES CC(C)C[C@H](NC(=O)[C@H](CCCCN)NC(=O)[C@H](CO)NC(=O)[C@@H](N)C(C)C)C(=O)N[C@@H](CCCNC(=N)N)C(=O)N[C@@H](CO)C(=O)N[C@H]1CCC(=O)NCCCC[C@@H](C(=O)N[C@@H](CCCCN)C(=O)N[C@@H](CCC(N)=O)C(=O)N[C@@H](CC(N)=O)C(N)=O)NC(=O)[C@H](CCCCN)NC(=O)[C@H](C(C)C)NC(=O)[C@H](CC(C)C)NC1=O) [Compound 136]	0.30	0.14	did not seem to stabilize	1437.80 deg cm^2 dmol^−1 residue^−1	−5084.93 deg cm^2 dmol^−1 residue^−1	−1568.07 deg cm^2 dmol^−1 residue^−1										
Ac-(cyclo-5,9)-VSKL[KSQLE]KRKQN-NH2 (Ac-VSKLKSQLEKRKQN-NH2; lactam 5-9; SMILES CC(=O)N[C@H](C(=O)N[C@@H](CO)C(=O)N[C@@H](CCCCN)C(=O)N[C@@H](CC(C)C)C(=O)N[C@H]1CCCCNC(=O)CC[C@@H](C(=O)N[C@@H](CCCCN)C(=O)N[C@@H](CCCNC(=N)N)C(=O)N[C@@H](CCCCN)C(=O)N[C@@H](CCC(N)=O)C(=O)N[C@@H](CC(N)=O)C(N)=O)NC(=O)[C@H](CC(C)C)NC(=O)[C@H](CCC(N)=O)NC(=O)[C@H](CO)NC1=O)C(C)C) [Compound 154]							0.045	0.045 OD	0.20	0.20	0.75	0.20	-1.18E+04 deg cm^2 dmol^−1	-4,95E+03 deg cm^2 dmol^−1	-8.78E+03 deg cm^2 dmol^−1	-9.74E+02 deg cm^2 dmol^−1
H-(cyclo-5,9)-VSKL[ESQLK]KRKQN-NH2 (H-VSKLESQLKKRKQN-NH2; lactam 5-9; SMILES CC(C)C[C@@H]1NC(=O)[C@H](CCC(N)=O)NC(=O)[C@H](CO)NC(=O)[C@@H](NC(=O)[C@H](CC(C)C)NC(=O)[C@H](CCCCN)NC(=O)[C@H](CO)NC(=O)[C@@H](N)C(C)C)CCC(=O)NCCCC[C@@H](C(=O)N[C@@H](CCCCN)C(=O)N[C@@H](CCCNC(=N)N)C(=O)N[C@@H](CCCCN)C(=O)N[C@@H](CCC(N)=O)C(=O)N[C@@H](CC(N)=O)C(N)=O)NC1=O) [Compound 134]	0.57	0.22	increase in α-helix structure	1002.14 deg cm^2 dmol^−1 residue^−1	−7685.97 deg cm^2 dmol^−1 residue^−1	−4403.89 deg cm^2 dmol^−1 residue^−1										
Ac-(cyclo-6,10)-VSKLR[KQLVE]RKQN-NH2 (Ac-VSKLRKQLVERKQN-NH2; lactam 6-10; SMILES CC(=O)N[C@H](C(=O)N[C@@H](CO)C(=O)N[C@@H](CCCCN)C(=O)N[C@@H](CC(C)C)C(=O)N[C@@H](CCCNC(=N)N)C(=O)N[C@H]1CCCCNC(=O)CC[C@@H](C(=O)N[C@@H](CCCNC(=N)N)C(=O)N[C@@H](CCCCN)C(=O)N[C@@H](CCC(N)=O)C(=O)N[C@@H](CC(N)=O)C(N)=O)NC(=O)[C@H](C(C)C)NC(=O)[C@H](CC(C)C)NC(=O)[C@H](CCC(N)=O)NC1=O)C(C)C) [Compound 155]							0.05	0.05 OD	0.37	0.37	0.75	0.37	-1.71E+04 deg cm^2 dmol^−1	-5.30E+03 deg cm^2 dmol^−1	-1.28E+04 deg cm^2 dmol^−1	
B1	0.46	0.18		1839.66 deg cm^2 dmol^−1 residue^−1	−7553.76 deg cm^2 dmol^−1 residue^−1	−4046.60 deg cm^2 dmol^−1 residue^−1										
